B1: C1a441-522: distal segment of C1a, residues 441-522 of rat Kv2.1 (protein, UniProt P15387 441-522, looked up, fragment)
chain: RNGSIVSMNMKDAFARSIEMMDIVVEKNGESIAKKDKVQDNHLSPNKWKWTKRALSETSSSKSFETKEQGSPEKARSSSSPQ
B2: C1a: rat Kv2.1 C1a peptide, residues 411-522 of SEQ ID NO: 3, expressed from a plasmid (protein, listed as Rattus norvegicus)
chain: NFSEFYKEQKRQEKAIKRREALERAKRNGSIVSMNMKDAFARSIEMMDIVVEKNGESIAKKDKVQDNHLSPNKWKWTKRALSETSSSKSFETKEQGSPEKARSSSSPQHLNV

Key:
cortical neurons = assay: Viability of transfected neurons exposed to activated microglia (GFP+ cell counts); type: cell-based, rat; details: overnight exposure to activated microglia; vector-expressing cells reduced by nearly 40%
Description: (§1) For electrophysiological experiments, mixed cortical neuronal/glial cultures were prepared from embryonic day 16 (E16) Sprague-Dawley rats (Charles River Laboratories, Wilmington, Mass., USA). Donor rats were euthanized by gradual CO2 exposure. Cortices were dissociated with trypsin, and the resultant cell suspension, adjusted to 670,000 cells per well, was plated on glass coverslips in 6-well plates as described previously (Hartnett et al., J Neurochem 68, 1836-1845, 1997). Non-neuronal cell proliferation was inhibited after two weeks in culture with 1-2 μM cytosine arabinoside, and cultures utilized at three to four weeks in vitro. For neuronal transfection, cells were treated for five hours in serum-free medium with 2 μL LIPOFECTAMINE™ 2000 (Invitrogen, Carlsbad, Calif.), 50 μL Optimem (GIBCO, Grand Island, N.Y.), and 1.5 μg DNA per well. For CHO cell transfections, cells were plated on coverslips in 24-well plates at a density of 5.6×10^4 cells per well for electrophysiological measurements or in 100 mm dishes at a density of 1.7×10^6 cells per dish for biochemical studies. […]
Viability of transfected neurons was assessed by cell counts of GFP+ cells. […] GFP+ cells were counted in 20 random areas per coverslip using a 20× objective. […]
It was next evaluated whether C1a441-522 was sufficient to protect neurons against oxidative injury. […]

Kv2.1 K^+ currents = assay: Whole-cell patch clamp K+ currents in cortical neurons after DTDP; type: cell-based, rat
Description: as §1, with “well.” for “well. For CHO cell transfections, cells were plated on coverslips in 24-well plates at a density of 5.6×10^4 cells per well for electrophysiological measurements or in 100 mm dishes at a density of 1.7×10^6 cells per dish for biochemical studies.”
Current recordings were performed on eGFP-positive co-transfected neurons or CHO cells using the whole-cell patch clamp configuration technique as described previously (McLaughlin et al., J Neurosci 21, 3303-3311, 2001). […] To determine current density values, steady-state current amplitudes were measured 180 msec after the initiation of the +10 mV step and normalized to cell capacitance. […]

Molecule | effect of activated microglia on viability of peptide-expressing neurons (cortical neurons) | effect on DTDP-induced enhancement of K+ current densities (Kv2.1 K^+ currents; cortical neurons transfected with C1a-expressing plasmid, 30 μM DTDP 10 min, +10 mV step) | effect on non-apoptotic, basal delayed-rectifier K+ currents (Kv2.1 K^+ currents; cortical neurons, without DTDP)
B1 | no detrimental effect | – | –
B2 | – | failed to exhibit the enhanced K^+ current densities normally elicited by DTDP | had no effect
